# What was measured:
# human FolRa = molecular target: T1, human FolRa (Homo sapiens, UniProt P15328); assay: Flow cytometry, cell surface binding on OUMS-23 and T-47D cells; details: compared to the unconjugated antibody
# T1 construct: OUMS-23 and T-47D cells expressing human FolRa; endogenous in cells; host or cells: OUMS-23, T-47D
# Description: (§1) The in vitro binding properties of antibody-chelator conjugates were assessed in various relevant cell lines and compared to their corresponding unconjugated antibody. Briefly, samples were diluted in buffer (PBS/3% FBS) and added to relevant cell lines. After completion of the binding step (60 min at 4°C), the cells were washed and incubated with secondary antibody conjugated with phycoerythrin to detect antibodies containing a human IgG Fc region. After 60 min at 4°C, the cells were washed, and fluorescence on the cells was determined by flow cytometry using Guava EasyCyte 8HT (Luminex).
# Cell surface binding of Farletuzumab-macropa and Farletuzumab-DOTA was compared to unconjugated Farletuzumab and investigated by flow cytometry using OUMS-23 and T-47D cells expressing human FolRa (Figure 43).
# Cell surface binding of Mirvetuximab-macropa and Mirvetuximab-DOTA was compared to unconjugated Mirvetuximab and investigated by flow cytometry using OUMS-23 and T-47D cells expressing human FolRa (Figure 47).
# CEACAM5 [1] = molecular target: T2, CEACAM5 (Homo sapiens, UniProt P06731); assay: Flow cytometry, cell surface binding on MKN-45 and HT-55 cells; design: MKN-45 and HT-55 cells expressing human CEACAM5; endogenous in cells; host or cells: MKN-45, HT-55; details: compared to unconjugated Labetuzumab
# T2 sequence (P06731 35-702): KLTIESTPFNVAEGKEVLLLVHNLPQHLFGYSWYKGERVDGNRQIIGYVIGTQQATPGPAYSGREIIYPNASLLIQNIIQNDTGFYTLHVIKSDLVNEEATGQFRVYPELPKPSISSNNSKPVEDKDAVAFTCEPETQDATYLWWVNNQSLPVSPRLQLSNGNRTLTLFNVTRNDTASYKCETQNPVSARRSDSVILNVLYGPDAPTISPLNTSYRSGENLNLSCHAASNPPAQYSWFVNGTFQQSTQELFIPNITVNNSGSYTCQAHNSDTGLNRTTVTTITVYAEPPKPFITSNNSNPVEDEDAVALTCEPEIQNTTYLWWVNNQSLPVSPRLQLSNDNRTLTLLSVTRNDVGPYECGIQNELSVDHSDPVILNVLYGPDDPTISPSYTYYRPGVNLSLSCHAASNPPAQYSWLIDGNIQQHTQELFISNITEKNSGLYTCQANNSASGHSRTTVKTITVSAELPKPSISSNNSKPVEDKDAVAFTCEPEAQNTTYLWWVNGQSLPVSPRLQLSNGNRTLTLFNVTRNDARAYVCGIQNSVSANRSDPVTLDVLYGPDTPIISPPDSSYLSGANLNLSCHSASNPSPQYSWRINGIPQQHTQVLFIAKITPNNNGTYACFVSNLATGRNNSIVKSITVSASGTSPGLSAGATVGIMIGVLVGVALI
# Description: as §1
# Cell surface binding of Labetuzumab-macropa was compared to unconjugated Labetuzumab and investigated by flow cytometry using MKN-45 and HT-55 cells expressing human CEACAM5 (Figure 19).
# CEACAM5 [2] = molecular target: T2, CEACAM5; assay: Immunoreactive fraction (IRF), binding to CEACAM5-coated beads; details: 2 kBq/µg
# Description: Shortly after completion of the radiolabeling, the binding was assessed by measuring the fraction of radiolabeled antibody-chelator conjugate bound to relevant antigen coated magnetic beads (Thermo Fisher Scientific). In short, beads were placed in 2 mL Eppendorf tubes in 90 µL buffer (PBS/0.1% Tween 20/1% BSA). The radiolabeled compounds were diluted to 5 Bq/µL in buffer and 50 Bq were added to each bead-containing tube. The binding lasted for 60 min while shaking at 750 rpm at room temperature. After completion of the binding step, magnet (DynaMag-2) was used to separate the beads from […] supernatant. The radio activities in the supernatant and in the beads of each sample were measured using a high purity Germanium detector (Ortec). […] Total binding was defined as [(activity in beads […])/ (total activity)] × 100.
# Shortly after completion of the radiolabeling, the binding of each sample to CEACAM5-coated M270-carboxy Dynabeads was determined.
# [3] = Chelation of bismuth-213 by iTLC after Ac-225 labelling; assay type: physicochemical; details: measured immediately and on Day 1 and Day 2 at room temperature
# Description: In brief, an iTLC paper impregnated with a silica gel plate was cut to obtain 11 cm × 1 cm strips. Application point (1 cm), cut point (4 cm) and end of run point (10 cm) was marked and 2 µl of TAC was applied on to iTLC strips. The strips were developed in 3 mL mobile phase (0.1 M Citrate in 0.9%(v/v) NaCl pH 5.5) in LSC vials. […] When the liquid front had reached the marked end point, the strips were removed from the vials and placed on an aluminum foil to dry. The strips were cut in two at 4 cm: the shorter "application" half (A) and the longer "front" half (F). Each part was carefully folded and placed at the bottom of scintillation vials. […] The radiochemical purity (% RCP) of the samples (defined as [(radioactivity of application section)/(total radioactivity on strip)] × 100) was calculated. Table 2: Radiochemical purity (% RCP) of samples included in this invention.
# Pelgi-macropa labeling was performed for 60 min at room temperature the two DOTA compounds were labeled at 60°C for 60 min. The percentage chelation of Bi-213 was determined using iTLC and measured on the Germanium Detector using the specific energy of Bi-213. After initial radiolabelling, compounds were measured immediately and on Day 1 and Day 2 after incubation at room temperature. […]
# GUCY2C = GUCY2C (Homo sapiens, UniProt P25092); assay: Flow cytometry, cell surface binding on CHO-GUCY2C cells; design: expressed in transfected cells; host or cells: CHO; details: compared to unconjugated Indusatumab
# Description: as §1
# Cell surface binding of Indusatumab-macropa was compared to unconjugated Indusatumab and investigated by flow cytometry using CHO-GUCY2C cells expressing human GUCY2C (Figure 31).
# [4] = system: C4-2, JIMT-1, T-47D, NCI-N87 and Calu-3; details: 2 to 40 kBq/µg; 6 days; vs isotype control
# Description: In vitro cytotoxicity of Ac-225-ACC was determined in cell lines expressing different levels of relevant target receptors. Cells were seeded at an appropriate cell density in relevant cell media. One day after seeding, the radiolabeled compounds at the specific activity of 2-20 kBq/µg and radioactive concentration of 50-100 kBq/ml were titrated in parallel with a radiolabeled isotype control. Cells were incubated for 5-6 days. Cell viability was determined by cell counting using Hoechst and PI staining and analyzed on Operetta CLS High Content Analysis System (Perkin Elmer) or by ATP measurements using CellTiterGlo (Promega).
# C4-2, JIMT-1, T-47D, NCI-N87 and Calu-3 were seeded at an appropriate cell density in the following cell media respectively: RPMI + 10% FBS + 1x MEM-NEAA + 1x HEPES + 1x Na Pyruvate; DMEM + 10% FBS; RPMI + 10% FBS + 10 µg/ml insulin; RPMI + 10% FBS; RPMI + 10% FBS. […] Cells were treated for 6 days and subsequentially cell viability was determined using CellTiterGlo (Promega).
# LK-2 lung cancer model = assay: In vivo antitumor efficacy in LK-2 model; design: species or system mice
# Text: Female BALB/c nude mice were inoculated subcutaneously with 1×10^6 LK-2 cells. When tumors reached an average size of ~190mm^3, animals were randomized into treatment groups (n=12 per group) and treatment was started.
# (**, P=0.0024. ****, […]) (Figure 28).
# human glypican-3 [5] = molecular target: T3, human glypican-3 (Homo sapiens, UniProt P51654); assay: ELISA, binding to recombinant human glypican-3; details: compared to unconjugated Codrituzumab
# Description: The relevant antigen was immobilized on ELISA plate by absorption. The plate was washed (PBS with 0.1% Tween 20) and incubated with blocking buffer (PBS + 3% BSA) for 2 h ± 1 h to reduce unspecific binding. Relevant antibodies and ACCs diluted in assay buffer (PBS with 0.05% Tween 20 + 1.5% BSA). The blocking buffer was discarded, and the antibodies and ACCs and controls were applied in triplicates to the plate according to a plate set-up defined in each protocol. After incubation for 1 h ± 30 min at RT, the plate was washed. A horse radish peroxidase (HRP)-conjugated secondary antibody binding specifically to the primary mAb (anti-human IgG-HRP) was added to the plate. After incubation for 1 hour ± 30 min at RT, the plate was washed. A chromogenic substrate (2,2'-azino-bis (3-ethylbenzothiazoline-6-sulphonic acid) (ABTS)), for HRP leading to the formation of a green color was added to the plate and used for detection. The absorbance of the colored reaction product was measured with an absorbance plate reader, e.g. EnVision 2103 Multilabel Reader from Perkin Elmer, or iMark Microplate Absorbance Reader from Bio-Rad.
# Absorbance against the log of the antibody concentration was plotted on the GraphPad Prism software. […]
# human glypican-3 [6] = molecular target: T3, human glypican-3; assay: Flow cytometry, cell surface binding on Hep3B2 cells; design: Hep3B2 cells expressing human glypican-3; endogenous in cells; host or cells: Hep3B2; details: compared to unconjugated Codrituzumab
# Description: as §1
# Cell surface binding of Codrituzumab-macropa was compared to unconjugated Codrituzumab and was investigated by flow cytometry using Hep3B2 cells expressing human glypican-3 (Figure 11).
# human TROP2 = molecular target: T4, human TROP2 (Homo sapiens, UniProt P09758); assay: Flow cytometry, cell surface binding on JIMT-1, MCF-7, T-47D and ZR-75-1 cells; details: compared to unconjugated Sacituzumab
# T4 construct: JIMT-1, MCF-7, T-47D and ZR-75-1 cells expressing human TROP2; endogenous in cells; host or cells: JIMT-1, MCF-7, T-47D, ZR-75-1
# T4 sequence (P09758 27-323): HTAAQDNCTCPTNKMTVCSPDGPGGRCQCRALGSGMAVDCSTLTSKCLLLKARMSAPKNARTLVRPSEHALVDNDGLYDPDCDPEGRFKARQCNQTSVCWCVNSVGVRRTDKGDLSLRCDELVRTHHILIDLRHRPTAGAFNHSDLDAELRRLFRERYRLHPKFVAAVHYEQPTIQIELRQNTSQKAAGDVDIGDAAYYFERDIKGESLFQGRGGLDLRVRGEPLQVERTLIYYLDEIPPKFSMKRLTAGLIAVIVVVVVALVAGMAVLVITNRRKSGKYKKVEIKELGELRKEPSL
# Description: as §1
# [7] = system: Huh-7 hepatoma expressing GPC3; assay: In vivo efficacy in Huh-7 xenograft; design: species or system Mice
# Text: • Figure 1. […] Size-exclusion UV chromatogram of Codrituzumab-macropa. • Figure 9. […] Size-exclusion UV chromatogram of Labetuzumab-macropa. • Figure 18. […] Internalization of Labetuzumab. […] Size-exclusion UV chromatogram of Sacituzumab-macropa. • Figure 25. […] Size-exclusion UV chromatogram of Indusatumab-macropa. • Figure 30. […] Size-exclusion UV chromatogram of Telisotuzumab-macropa. • Figure 36.
# [8] = system: HepG2 and Hep3B2.1-7 cells; details: 2 MBq/mg, 5 kBq/ml; 6 days; vs radiolabeled isotype control
# Description: Cells were seeded at an appropriate cell density in relevant cell media. One day after seeding, the radiolabeled compounds at the specific activity of 2-20 kBq/µg and radioactive concentration of 50-100 kBq/ml were titrated in parallel with a radiolabeled isotype control. Cells were incubated for 5-6 days. Cell viability was determined by cell counting using Hoechst and PI staining and analyzed on Operetta CLS High Content Analysis System (Perkin Elmer) or by ATP measurements using CellTiterGlo (Promega).
# HepG2 and Hep3B2.1-7 cells were seeded at an appropriate cell density in the cell media MEM + 10% FBS. HepG2 cells have higher GPC3 expression on the cell surface than Hep3B2.1-7 cells. One day after seeding the compounds at the specific activity of 2 MBq/mg and radioactive concentration of 5 kBq/ml were titrated in parallel with a radiolabeled isotype control. Cells were incubated for 6 days and subsequentially cell viability was determined using Hoechst and PI staining and analyzed on Operetta CLS High Content Analysis System (Perkin Elmer).
# [9] = system: GPC3 low-expressing hepatoma xenograft model Huh-7; details: 168h; 500 kBq/kg IV, 0,75 mg/kg total protein
# Description: Female RJ: NRMI-Foxn1nu/nu mice were inoculated with 2 × 10^6 Huh-7 cells on the right flank. Animals were pre-treated with 200 µg/mouse unspecific IgG2a antibody 24 h prior to hot dosing.
# T1 sequence (P15328 25-257): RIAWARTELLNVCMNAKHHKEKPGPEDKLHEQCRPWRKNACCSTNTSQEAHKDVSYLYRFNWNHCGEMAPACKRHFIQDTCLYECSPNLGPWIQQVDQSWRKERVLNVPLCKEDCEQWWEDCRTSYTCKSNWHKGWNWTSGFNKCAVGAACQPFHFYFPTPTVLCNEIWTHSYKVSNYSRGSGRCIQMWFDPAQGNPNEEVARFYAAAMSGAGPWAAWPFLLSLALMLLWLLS
substance,measurement,setting,value
Mirvetuximab-macropa,EC50,human FolRa,comparable EC50 in both cell lines as unconjugated Mirvetuximab
Labetuzumab-macropa,EC50,CEACAM5 [1],comparable EC50 as unconjugated Labetuzumab
Ac-225-macropa-Labetuzumab,IRF,CEACAM5 [2]; 33 µg beads,43%
same,IRF,CEACAM5 [2]; 100 µg beads,88%
same,IRF,CEACAM5 [2]; 333 µg beads,97%
pelgifatamab-DOTA: pelgifatamab-DOTA (CAR 12.7) labeled with Actinium-225,chelation of Bismuth-213,[3],not chelated to the same extent with DOTA
Farletuzumab-macropa,EC50,human FolRa,comparable EC50 in both cell lines as unconjugated Farletuzumab
Pelgi-macropa: actinium-225 complexed to a macropa chelator covalently linked to the fully human PSMA-targeting antibody pelgifatamab (CAR 0.8),chelation of Bismuth-213,[3],chelated by macropa
Indusatumab-macropa,EC50,GUCY2C,comparable EC50 as unconjugated Indusatumab
Mirvetuximab-DOTA [reference compound],EC50,human FolRa,higher EC50 than unconjugated Mirvetuximab in OUMS-23 cells
Ac-225-macropa-Sacituzumab: Ac-225 macropa complex bound to the anti-TROP2 monoclonal antibody Sacituzumab,cytotoxicity,[4],strong and specific cytotoxicity
same,tumor growth inhibition,"LK-2 lung cancer model; 100 or 200 kBq/kg, i.v., single dose day 0",strong tumor growth inhibition at both doses tested
same,Antitumor activity compared to Trodelvy,"LK-2 lung cancer model; Trodelvy 20 mg/kg i.v. day 0,7,14",significantly improved as compared to Trodelvy
Codrituzumab-DOTA,EC50,human glypican-3 [5],higher EC50 than unconjugated Codrituzumab
Codrituzumab-macropa,EC50,human glypican-3 [6],comparable EC50 as unconjugated Codrituzumab
Sacituzumab-macropa,EC50,human TROP2,comparable EC50 as unconjugated Sacituzumab
Farletuzumab-DOTA [reference compound],EC50,human FolRa,higher EC50 than unconjugated Farletuzumab in both cell lines
Ac-225-macropa-Codrituzumab: Ac-225 macropa complex bound to the anti-GPC3 monoclonal antibody Codrituzumab,anti-tumor activity,"[7]; 500 kBq/kg single dose IV, repeat dose 250 kBq/kg on day 25, compared to isotype control",significantly higher anti-tumor activity
same,body weight loss,[7]; during the course of the study,No body weight loss
same,cytotoxicity,[8],strong and specific cytotoxicity
same,tumor uptake,[9],significantly higher tumor uptake at 168h compared to Ac-225-macropa-isotype-control

# From patent EP4552657A1, “RADIOPHARMACEUTICAL COMPLEXES AND COMBINATIONS” (priority 2023, dated 2025)
